Laboratory results published in publication PMC4806292, “Structural insights and in vitro reconstitution of membrane targeting and activation of human PI4KB by the ACBD3 protein” (Scientific Reports, 2016).
Substitutions are numbered along the chain they refer to. Names and notes keep the numbering of the source.

B1: N-terminal His6GB1-tagged ACBD3 Q domain (residues 241-308) (domain or fragment, human, UniProt Q9H3P7 241-308, looked up)
chain: QQKQQIMAALNSQTAVQFQQYAAQQYPGNYEQQQILIRQLQEQHYQQYMQQLYQVQLAQQQAALQKQQ
notes: ACBD3 Q domain (glutamine rich region), human, UniProtKB Q9H3P7, residues 241-308; also called Q domain of ACBD3; source: E. coli BL21 Star, purified (Ni-NTA, SEC); not shown: His6, N-terminal, kept; GB1, N-terminal, kept
B2: Acyl-coenzyme A binding domain containing protein 3 (ACBD3), full length, untagged (natural protein, human, UniProt Q9H3P7 1-528, looked up)
chain: MAAVLNAERLEVSVDGLTLSPDPEERPGAEGAPLLPPPLPPPSPPGSGRGPGASGEQPEPGEAAAGGAAEEARRLEQRWGFGLEELYGLALRFFKEKDGKAFHPTYEEKLKLVALHKQVLMGPYNPDTCPEVGFFDVLGNDRRREWAALGNMSKEDAMVEFVKLLNRCCHLFSTYVASHKIEKEEQEKKRKEEEERRRREEEERERLQKEEEKRRREEEERLRREEEERRRIEEERLRLEQQKQQIMAALNSQTAVQFQQYAAQQYPGNYEQQQILIRQLQEQHYQQYMQQLYQVQLAQQQAALQKQQEVVVAGSSLPTSSKVNATVPSNMMSVNGQAKTHTDSSEKELEPEAAEEALENGPKESLPVIAAPSMWTRPQIKDFKEKIQQDADSVITVGRGEVVTVRVPTHEEGSYLFWEFATDNYDIGFGVYFEWTDSPNTAVSVHVSESSDDDEEEEENIGCEEKAKKNANKPLLDEIVPVYRRDCHEEVYAGSHQYPGRGVYLLKFDNSYSLWRSKSVYYRVYYTR
notes: ACBD3, human, UniProtKB entry Q9H3P7, full length; Called untagged in the pull-downs; also called GCP60; PAP7; source: E. coli BL21 Star, purified (Ni-NTA, TEV, SEC); not shown: His6, N-terminal, cleaved; GB1, N-terminal, cleaved
B3: N-terminal His6GB1-tagged PI4KB N-terminal region (residues 1-68) (domain or fragment, human, UniProt Q9UBF8 1-68, looked up)
chain: MGDTVVEPAPLKPTSEPTSGPPGNNGGSLLSVITEGVGELSVIDPEVAQKACQEVLEKVKLLHGGVAV
notes: PI4KB N-terminal region preceding the helical domain, human, UniProtKB Q9UBF8 isoform 1, residues 1-68; also called N-terminal region of PI4KB; source: E. coli BL21 Star, purified (Ni-NTA, SEC); not shown: His6, N-terminal, kept; GB1, N-terminal, kept
B4: ACBD3 Y266A mutant, untagged (natural protein, human, UniProt Q9H3P7 1-528, looked up)
chain: B2 chain with Y266A
notes: ACBD3, human, UniProtKB Q9H3P7, point mutant; source: E. coli BL21 Star, purified (Ni-NTA, TEV, SEC); not shown: His6, N-terminal, cleaved; GB1, N-terminal, cleaved
B5: PI4KB, untagged (residues 423-522 removed) (enzyme, human, UniProt Q9UBF8 1-816, looked up)
chain: MGDTVVEPAPLKPTSEPTSGPPGNNGGSLLSVITEGVGELSVIDPEVAQKACQEVLEKVKLLHGGVAVSSRGTPLELVNGDGVDSEIRCLDDPPAQIREEEDEMGAAVASGTAKGARRRRQNNSAKQSWLLRLFESKLFDISMAISYLYNSKEPGVQAYIGNRLFCFRNEDVDFYLPQLLNMYIHMDEDVGDAIKPYIVHRCRQSINFSLQCALLLGAYSSDMHISTQRHSRGTKLRKLILSDELKPAHRKRELPSLSPAPDTGLSPSKRTHQRSKSDATASISLSSNLKRTASNPKVENEDEELSSSTESIDNSFSSPVRLAPEREFIKSLMAIGKRLATLPTKEQKTQRLISELSLLNHKLPARVWLPTAGFDHHVVRVPHTQAVVLNSKDKAPYLIYVEVLECENFDTTSVPARIPENRRDPEDPSAVALKEPWQEKVRRIREGSPYGHLPNWRLLSVIVKCGDDLRQELLAFQVLKQLQSIWEQERVPLWIKPYKILVISADSGMIEPVVNAVSIHQVKKQSQLSLLDYFLQEHGSYTTEAFLSAQRNFVQSCAGYCLVCYLLQVKDRHNGNILLDAEGHIIHIDFGFILSSSPRNLGFETSAFKLTTEFVDVMGGLDGDMFNYYKMLMLQGLIAARKHMDKVVQIVEIMQQGSQLPCFHGSSTIRNLKERFHMSMTEEQLQLLVEQMVDGSMRSITTKLYDGFQYLTNGIM
notes: Phosphatidylinositol 4-kinase beta (PI4KB), human, UniProtKB entry Q9UBF8 isoform 1, with the intrinsically disordered region 423-522 removed; Called untagged in the pull-downs; the AUC mass of about 80 kDa fits the deleted form; also called PI4K IIIβ; untagged full-length PI4KB; source: E. coli BL21 Star, purified (Ni-NTA, TEV, SEC); not shown: His6, N-terminal, cleaved; GB1, N-terminal, cleaved

Tests used:
Conditions in all cases: both partners purified
[1] = biological target: B5; experiment: pull-down; Ni-NTA sepharose beads, one partner with N-terminal His6GB1 tag immobilised, both partners 1 μM in 200 μL 30 mM Tris pH 8, 200 mM NaCl, 10 mM imidazole, 1 mM TCEP; 30 min at 4 °C; SDS gels stained with Coomassie Blue
[2] = biological target: T1, His6GB1-tagged PI4KB V47A mutant (human, UniProt Q9UBF8 1-816, V47A | residues 423–522 removed); experiment: as above
T1 construct: PI4KB, human, UniProtKB Q9UBF8 isoform 1, residues 423-522 removed, point mutant; source: E. coli BL21 Star, purified (Ni-NTA, SEC); not shown: His6, N-terminal, kept; GB1, N-terminal, kept

[3] = biological target: T2, His6GB1-tagged PI4KB V42A mutant (human, UniProt Q9UBF8 1-816, V42A | residues 423–522 removed); experiment: as above
T2 construct: PI4KB, human, UniProtKB Q9UBF8 isoform 1, residues 423-522 removed, point mutant; source: E. coli BL21 Star, purified (Ni-NTA, SEC); not shown: His6, N-terminal, kept; GB1, N-terminal, kept

[4] = biological target: B5; experiment: SPR; legend: PI4KB binding to immobilized ACBD3; methods: PI4KB chip-immobilized, ACBD3 injected in a series of concentrations for 3 min, dissociation 5 min; single-exponential model
[5] = biological target: B2; experiment: pull-down; Ni-NTA sepharose beads, one partner with N-terminal His6GB1 tag immobilised, both partners 1 μM in 200 μL 30 mM Tris pH 8, 200 mM NaCl, 10 mM imidazole, 1 mM TCEP; 30 min at 4 °C; SDS gels stained with Coomassie Blue
[6] = biological target: T3, N-terminal His6GB1-tagged PI4KB (residues 423-522 removed) (human, UniProt Q9UBF8 1-816, residues 423–522 removed); experiment: as above
T3 construct: Phosphatidylinositol 4-kinase beta (PI4KB), human, UniProtKB entry Q9UBF8 isoform 1, with the intrinsically disordered region 423-522 removed; also called PI4K IIIβ; His6-tagged wild type PI4KB; source: E. coli BL21 Star, purified (Ni-NTA, SEC); not shown: His6, N-terminal, kept; GB1, N-terminal, kept

[7] = biological target: B2; experiment: AUC; sedimentation velocity, full-length proteins alone and as complex, 5 μM (both proteins); 10 mM Tris pH 8, 200 mM NaCl, 3 mM β-mercaptoethanol, 20 °C, 48000 rpm; c(s) model

Binder: B1
binding result [1]: binds

Binder: B2
binding result [2]: binds
binding result [3]: binds
Kd [4]: 320 nM

Binder: B3
binding result [5]: binds

Binder: B4
binding result [6]: binds

Binder: B5
stoichiometry N [7]: 1
